Residue numbers refer to the chain shown, from its start.

The source of these data is publication PMC6908968 (Cell, 2019).

T1: thermolysin-cleaved EBOV GP on Jurkat-GP cells (cleaved GP) (Zaire ebolavirus, Makona (GP1 core …, strain))
T1 chain 1: not shown
T1 chain 2: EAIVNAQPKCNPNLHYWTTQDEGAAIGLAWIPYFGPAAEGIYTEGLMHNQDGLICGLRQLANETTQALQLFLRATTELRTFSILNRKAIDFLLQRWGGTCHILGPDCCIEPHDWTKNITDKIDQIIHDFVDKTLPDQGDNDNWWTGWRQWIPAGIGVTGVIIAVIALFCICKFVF

B1: 9.1.c1410 (antibody, V domains shown)
VH: EVQLVESGGGLVKPGGSLRLSCAASGFTFSSYSMNWVRQAPGKGLEWVSSISSSSSYIYYADSVKGRFTISRDNAKNSLYLQMNSLRAEDTAVYYCARDLSEYQLLLSYFDYWGQGTLVTVSS
VL: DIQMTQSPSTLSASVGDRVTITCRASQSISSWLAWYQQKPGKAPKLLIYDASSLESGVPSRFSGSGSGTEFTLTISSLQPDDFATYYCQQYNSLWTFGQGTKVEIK
B2: 5.6.c3387 (antibody, V domains shown)
VH: QLQLQESGPRLVKPSETLSLTCTVSGGSINRNSYYWGWIRQPPGKGLEWIGTIYYSGSPYYNPSLKSRVTISVDTSKNQFSLKLDSVTAADTALYFCASLWGWNDVGWFDSWGQGTLVTVSS
VL: EIVLTQSPGTLSLSPGERATLSCRASQSVSSGYLAWYQQKPGQAPRLLIYGASIRAAGIPDRFSGSGSGTDFTLTISRLEPEDFAVYFCQQYGTSPLTFGPGTTVDIK
B3: 15.0.c819 (antibody, V domains shown)
VH: QVQLVESGGGVVQPGRSLRLSCAASGFTFSSYAMHWVRQAPGKGLEWVAVISYDGSNKYYADSVKGRFTISRDNSKNTLYLQMNSLRAEDTAVYYCARDLLWFGELLFREYYMDVWGKGTTVTVSS
VL: not shown
B4: 15.0.c942 (antibody, V domains shown)
VH: EVQLVESGGGVVRPGGSLRLTCAASGFIFENYGMSWVRQAPGKGLEWVSALNWNGVNTYYSDSVKGRFTISRDNAKNSLYLQMNSLSAEDTAFYYCAVHYYDSSGIYYLDDWGQGTLVTVSS
VL: QSVLTQPPSVSAAPGQKVSISCSGSSSNIGKNYVYWYQHVPGAAPKLLIYENDKRPSGIPDRFSGSKSGTSATLDITGLQTGDEAEYYCATWQSGLSAHVVFGGGTKLTVL
B5: 15.0.c835 (antibody, V domains shown)
VH: not shown
VL: DIQLTQSPSFLSASVGDRVTITCRASQGISSYLAWYQQKPGKAPKLLIYAASTLQSGVPSRFSGSGSGTEFTLTISSLQPEDFATYYCQQLNSYGYTFGQGTKLEIK
B6: 5.6.c3010 (antibody, V domains shown)
VH: EVQLVESGGGLVQPGGSLRLSCAASGLTVSSNYMNWVRQAPGKGLEWVSVIYSGGRTYYADSVKGRFTISRDISKNTVYLEMNSLRADDTAVYYCARIYFFYNGMDVWGQGTTVTVSP
VL: EILLTQSPGTLSLSPGERATLSCRASQSVSSNYLAWFQQKPGQAPRLLIYGASSRATGIPDRFSGSGSGTDFTLTISRLEPEDFALYYCQQYGSSPPWTFGQGTKVEMK
B7: 9.1.c1426 (antibody, V domains shown)
VH: QVQLQESGPGLVKPSQTLSLTCTVSGGSISSGDYYWSWIRQPPGKGLEWIGYIYYSGSTYYNPSLKSRVTISVDTSKNQFSLKLSSVTAADTAVYYCARGYSSGWYLAYFQHWGQGTLVTVSS
VL: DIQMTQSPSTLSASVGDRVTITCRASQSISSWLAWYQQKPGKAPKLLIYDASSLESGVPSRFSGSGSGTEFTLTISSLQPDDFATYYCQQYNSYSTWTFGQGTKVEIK
B8: 5.6.c2647 (antibody, V domains shown)
VH: QDQLVQSGAEVKKPGASVKVSCKASGYSFTGHYIHWVRRAPGRGLEWMGWINPDSGGTNYAQKFQGWVSMTRDTSISTAYMELSSLKSDDTAVYYCARGITMICDLWGQGTQVTVSS
VL: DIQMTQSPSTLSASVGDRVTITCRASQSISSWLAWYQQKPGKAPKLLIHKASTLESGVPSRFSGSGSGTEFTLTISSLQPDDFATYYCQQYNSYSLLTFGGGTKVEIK
B9: 15.0.c778 (antibody, V domains shown)
VH: QVQLHESGPGVVKVSETLSLTCTLSGGSINGNSWSWIRQTAGKGLEWIGRVYTSGSPNYNPSLKSRLTMSIVTSKNQFSLTLRSVTAADTAIYYCARDFVVIDPTRVVDDYDAFDVWGRGTVVTVSS
VL: DIQLTQSPSILSASVGDRVTITCRASQSVSRYLAWYQQKPGNAPKLLIYKVSTLQSGVPSRFSGSASGTEFTLTINSLQPDDFATYYCHQYNGYLYTFGQGTKVDVK
B10: 15.0.c846 (antibody, V domains shown)
VH: EVQLVESGGGLVQPGGSLRLSCAASGFTFSSYWMSWVRQAPGKGLEWVANIKQDGSEKYYVDSVKGRFTISRDNAKNSLYLQMNSLRAEDTAVYYCARTRDSSSSFYYYYYMDVWGKGTTVTVSS
VL: not shown
B11: 15.0.c800 (antibody, V domains shown)
VH: EDQLLESGGGLVQPGGSLRLSCAVSGFTFSGYDLSWVRQAPGKGLEWVSIFSGSGGRKYYADSVKGRFTLSIDNSKNTLYLQMNSLRAEDTAVYYCAGDSSGYNNERMYYTYYMDVWGKGTTVTVSS
VL: DIQMTQSPSSVSASVGDRVIITCRASQGISSWLAWYQQKPGKAPKLLIYAASSLQSGVPSRFSGSGSGTDFTLTISSLQPEDFATYYCQQANSFPLSFGGGTKVEIK
B12: 15.0.c830 (antibody, V domains shown)
VH: EEQLLESGGGLVQPGGSLRLSCTVSGFTFSGYDMSWVRQAPGKGLEWVSLLSASGGGKYYADSVRGRFTISRDNSKNTMYLEMNSLRADDTAIYYCATDSSGYNYERLYYTYYMDVWGRGTTVSVSS
VL: B11 VL with I20T, S31V, Y49H, T72S, S97T
B13: 15.0.c792 (antibody, V domains shown)
VH: EVQLVESGGGLVQPGGSLRLSCAASGFTFSSYSMNWVRQAPGKGLEWVSYISSSSSTIYYADSVKGRFTISRDNAKNSLYLQMNSLRAEDTAVYYCARESPTYYDFWSGYSDYWGQGTLVTVSS
VL: NFMLTQPHSVSESPGKTVTISCTRSSGSIASNYVQWYQQRPGSSPTTVIYEDNQRPSGVPDRFSGSIDSSSNSASLTISGLKTEDEADYYCQSYDSSNRVFGGGTKLTVL
B14: 15.0.c779 (antibody, V domains shown)
VH: EVQMVESGGGLVKPGGSLRLSCAASGFIFSNAWMSWVRQAPGKGLEWVGRIKGKTDGGTTDYAAPVKGRVTISRDDSKNTLFLQMNSLKTEDTAVYFCTADVLPAATRGVYYYYYYMDVWGKGTTVTVSS
VL: QSALTQPASVSGSPGQSITISCTGTSSDVGGYNYVSWYQQHPGKAPKLMIYDVSKRPSGVSNRFSGSKSGNTASLTISGLQAEDEADYYCCSYTGRSTVVFGGGTTLTVL
B15: 15.0.c780 (antibody, V domains shown)
VH: EVQLVESGGGLVKPGGSLRLSCAASGFTFSNAWMSWVRQAPGKGLEWVGRIKGKTDGGTTDYAAPVRGRFTISRDDSKNMLYLQMNSLKTEDTAIYYCTADVIPAATRGVYYYYYYMDVWGEGTTVAVSS
VL: B14 VL with V60L, T94A, G95R, R96S, T106K, L107V
B16: 15.0.c912 (antibody, V domains shown)
VH: QVQLQESGPGLVKPSQTLSLTCTVSGGSISSGGYYWNWVRQHPGKGLEWIGYISYSGSTFYSGSTYYNPSLKSRITISLDTSKNQFSLNLSSVTAADTAVYYCARDRGDPGGYYNYGMDVWGQGTTVTVSS
VL: QSVLTQPPSASGTPGQRVTISCSGSSSNIGSHYVYWYQQLSGTAPKLLIYRNNERPSGVPDRFSGSKSGTSASLAISGLRSEDEADYYCATWDDSQRVFGGGTKLTVL
B17: 15.0.c865 (antibody, V domains shown)
VH: EVQLVESGGSVVRPGGSLRLSCAASVFTFENYGMSWVRQTPGKGLEWVSSINWNGANTGYADSVKGRFTVSRDNAKNSLYLQMNSLRAEDTALYYCARHRYDSSGQWYFDYWGQGTLVTVSS
VL: SYELTQPPSVSVSPGQTARITCSGDALPKKYAYWYQQKPGQAPVLVIYEDSKRPSGIPERFSGSRSGTMATLTISGAQVADEADYYCYSPDSSGNHRIFGTGTKVTVL
B18: 5.6.c4172 (antibody, V domains shown)
VH: QVQLQESGPGLVKPSGTLSLTCAVSGGSISSHYWWSWVRQSPGKGLEWLGEIYQIGSTNYNPSLKSRVSMSVDESKNQFSLSLTSVTAADTAVYYCARDQGHWNPGKGAFDIWGQGALVTVSS
VL: QSVLTQPPSVSAAPGQRVTISCSGSNSNIGKNFVSWYQQFPGTAPKLLIYDNDKRPSGIPDRFSGSKSGTSATLGITGLQTGDEADYFCATWDTTLSAWVFGGGTKVTVL
B19: 5.6.c2875 (antibody, V domains shown)
VH: EVQLVESGGGVVQPGGSLRLSCAASGFTLRNFDMHWVRQVTGKGLEWVSGIGTAGDTYYPDSVKGRFTISRENAKNSLYLQMNSLRAEDTAVYYCARARWLQFDNWGQGALVTVSS
VL: EIVLTQSPGTLSLSPGERATLSCKASQRVTSNFLAWYQQTPGQAPRLLIYSASSRATGIPDRFSGSGSGTDFTLTISRLEPEDFAVYYCQQYRSSRYTFGQGTKLEIK
B20: 5.6.c3169 (antibody, V domains shown)
VH: QVQLVQSGTEVKKPGASVRVSCKSSGYTFTNYGINWVRQAPGQGLEWLGWISTYNDNINYAQKFQGRVTMTTDTSTSTAYMELRSLRSDDTAIYYCAKDSSAYWDLLFYGMDVWGQGTTVTVSS
VL: B5 VL with L11V, Y32S, K45N, T53A, E70D, Y87F, G95P
B21: 5.6.c2902 (antibody, V domains shown)
VH: QVQLQESGPGLVKPSQTLSLTCTVSGASINSRDSYWSWIRQPPGKGLEWIGYIYYSGSTYSNPSLKSRVTMSVDTSKNQISLQLSSVTAADTAVYYCARVEGNEILFSLWYFDIWGRGTPVSVSS
VL: QSVLTQPPSVSAAPGQKVTISCSGSSSNIGNNYVSWYQQLPGTAPKLLIYDNNKRPSGIPDRFSGSKSGTSATLGITGLQTGDEADYYCGSWDSSLSAGHWVFGGGTKLTVL
B22: 5.6.c2617 (antibody, V domains shown)
VH: EVQLVESGGGLVQPGGSLRLSCVASGFTFSSYEMDWVRQAPGKGLEWVSYIGSSGSTIYYADSVKGRFTISRDNAKNSLYLQMNSLRAEDTAVYYCARDTETTGLYYYGMDVWGQGTTVTVSA
VL: B11 VL with I20T, S31R, A50G, A51T, L96F, S97T, G100P, K103R, E105D

The target in one experiment is T1, thermolysin-cleaved EBOV GP on ….
Consider B1, for which the binding result is given as “binds”. Consider B2, for which the binding result is “binds”.

In the case of B3, the binding result is listed as “binds”. As to B4, the binding result was “binds”. For the molecule B5, the binding result was “binds”. For B6, the binding result is “binds”. Same read-out and setting: with B7 the entry was “binds”; with B8, “binds”.

As for B9, the binding result is listed as “binds”. Take B10: the binding result is given as “binds”. As to B11, the binding result is listed as “binds”. Same read-out and setting: the result for B12 reads “binds”; that for B13, “binds”; that for B14, “binds”. For the molecule B15, the binding result is given as “binds”.

On to B16, for which the binding result is “binds”. The same measure, in the same setting: with B17 the entry was “binds”; with B18, “binds”.

Another experiment has as its target EBOV GP ectodomain residues 1-636 (GPec) (Zaire ebolavirus, strain  …, UniProt Q05320).
B19: the binding result is “binds”.

In the case of B20, the binding result is “binds”. As for B21, the binding result is given as “binds”. With B22, the binding result is reported as “binds”.
